The source of these data is the RNAGym collection of RNA variant scans (doi:10.7554/elife.80360).

First the molecules themselves.
B1: HDV Ribozyme (parent)
chain: GGCCGGCAUGGUCCCAGCCUCCUCGCUGGCGCCGGCUGGGCAACAUUCCGAGGGGACCGUCCCCUCGGUAAUGGCGAAUGGGACCCA

The data set covers variants of B1. In words: self-cleavage, relative activity (ratio to wild type); higher = more cleavage; co-transcriptional.
Turning to U37C A56G, the self-cleavage came out at 1.23.
In the case of U37C A56U it was 1.09; in that of U37C A43C, 0.308; in that of G38A G73A, 0.0875.
In the case of G38A G67C it was 0.113; in that of G38A G53U, 0.0567.
In the case of G38A G53C it was 0.0678.
For the variant G38A G50A, the self-cleavage is 0.0886.
With G38A G50U, the self-cleavage worked out at 0.157.
In the case of U37C C48A it was 1.13; in that of U37C C48G, 1.04; in that of G38C C61U, 0.136.
In the case of U37G G40C it was 0.0519.
In the case of U37G G40A it was 0.302.
As for G38A C66G, the self-cleavage came out at 0.109.
In the case of G38A C66U, the self-cleavage stood at 0.128.
In the case of U37A G39C it was 0; in that of G38A A87C, 0.0881; in that of G38A A87G, 0.219.
In the case of G38A G76C, the self-cleavage is 0.0767.
In the case of G38A G76A it was 0.112; in that of G38A G76U, 0.202.
In the case of U37A U72C it was 0; in that of U37A U65C, 0.225.
For the variant G38C C58A, the self-cleavage is 0.361.
In the case of G38C C58G it was 0.237; in that of U37A C75A, 0.0707.
In the case of U37A C75U it was 0.128; in that of U37A C75G, 0.0852; in that of U37G C85A, 0.0875.
Regarding G38A C62A, the self-cleavage was determined as 0.0733.
In the case of U37A G68A, the self-cleavage was 0.381.
For the variant U37A G68C, the self-cleavage stood at 0.0405.
For the variant U37G A43G, the self-cleavage turned out to be 0.
As to U37G A43U, the self-cleavage was 0.208.
In the case of U37G A43C it was 0.133; in that of U37G G80C, 0.0449; in that of U37G G80U, 0.203.
For U37G G80A, the self-cleavage came out at 0.0308.
In the case of U37G A42G it was 0.0723.
U37G G52U: the self-cleavage was 0.198.
Take U37A G40U: the self-cleavage was found to be 0.157.
In the case of U37A G40C it was 0.0519; in that of U37A G59C, 0.224; in that of U37A G59A, 0.237.
With G38A A83U, the self-cleavage came to 0.13.
In the case of U37G G74C it was 0.0361; in that of U37C G67A, 1.
In the case of U37A C48G it was 0.148; in that of U37A C48U, 0.237; in that of U37C A70G, 1.23.
Take U37G C84A: the self-cleavage came to 0.161.
In the case of G38A A43C it was 0.0449; in that of U37A A87C, 0.17.
For the variant U37A A87U, the self-cleavage came out at 0.325.
In the case of U37A A87G it was 0.0989; in that of U37A C49U, 0.155; in that of U37A C49G, 0.201.
For G38A G40A, the self-cleavage worked out at 0.262.
In the case of G38A G40C it was 0.138; in that of G38A G40U, 0.149; in that of U37C U69A, 0.9.
As to U37C U69G, the self-cleavage is 1.19.
As to U37C A42G, the self-cleavage came to 0.795.
In the case of G38C C63U it was 0.194; in that of U37G C66A, 0.199; in that of U37G C66G, 0.135.
In the case of U37A C84A it was 0.128; in that of U37C C85U, 1.01; in that of U37C C85A, 1.16.
As to U37C C85G, the self-cleavage stood at 0.95.
In the case of U37A G54C, the self-cleavage was determined as 0.308.
In the case of U37A G52A it was 0.145.
In the case of U37A G52U it was 0.214; in that of G38C C44G, 0.222.
In the case of U37G G68C it was 0.246; in that of U37G G68U, 0.128.
Take U37G G68A: the self-cleavage was found to be 0.246.
In the case of U37G C58G it was 0.369.
In the case of U37G C58A it was 0.145; in that of U37G C58U, 0.0504; in that of U37C U72C, 0.462.
In the case of U37C U72A, the self-cleavage worked out at 0.356.
Regarding U37C U72G, the self-cleavage was 0.429.
Take U37G A71U: the self-cleavage amounted to 0.0594.
As to U37G A71C, the self-cleavage amounted to 0.0831.
In the case of U37G A71G it was 0.0594; in that of U37A G74A, 0.166; in that of G38A A78U, 0.0297.
In the case of G38A A78G it was 0.0755; in that of G38A A78C, 0.138; in that of U37A U60C, 0.192.
Consider U37A U60A, for which the self-cleavage came out at 0.111.
G38C A71C: the self-cleavage was determined as 0.231.
In the case of G38A U79A it was 0.0831; in that of U37G C57U, 0.0405.
In the case of G38A G80U it was 0.156.
In the case of G38A G80A it was 0.0372; in that of U37C G68U, 1.05.
U37C G68C: the self-cleavage is 0.682.
In the case of U37G A87G it was 0.0455.
In the case of U37G A87C it was 0.0764; in that of U37G A87U, 0.148; in that of G38C A87U, 0.252.
In the case of G38C A87G it was 0.155; in that of U37A G81C, 0.227; in that of U37A G81U, 0.0875.
For G38C A42U, the self-cleavage is 0.208.
In the case of G38C A42C it was 0.104.
For U37C U46C, the self-cleavage came to 0.914.
For U37C U46G, the self-cleavage is 0.787.
In the case of U37G G53U it was 0.157; in that of G38A G81U, 0.176; in that of G38A G81C, 0.0712.
In the case of U37G U65C it was 0.123; in that of U37G C41U, 0.156.
In the case of U37G C41A it was 0.
U37G C41G: the self-cleavage was 0.332.
In the case of U37G U46G it was 0.332.
In the case of U37G U46A it was 0.
U37C C57A: the self-cleavage came to 1.
In the case of U37C C57U it was 0.875.
In the case of U37G G50A it was 0.113; in that of U37G G50C, 0.185.
Take U37G G50U: the self-cleavage amounted to 0.135.
In the case of U37G G81A it was 0.
In the case of G38A G55U it was 0.19; in that of G38A G55A, 0.0821.
In the case of U37C G55U, the self-cleavage came to 1.13.
On to U37A C63G, for which the self-cleavage is 0.17.
Regarding U37A C63A, the self-cleavage is 0.116.
As for U37C G81U, the self-cleavage worked out at 0.211.
In the case of U37C G81C it was 0.138; in that of U37C G81A, 0.283.
In the case of G38A G52U it was 0.245.
In the case of U37C C75A it was 0.177.
As for U37C C75U, the self-cleavage was 0.0997.
With U37C C75G, the self-cleavage stood at 0.0627.
In the case of U37G U79G it was 0.115; in that of U37G U79C, 0.
In the case of U37G C61U it was 0.138; in that of G38A C84A, 0.185; in that of U37C G73U, 0.185.
In the case of U37C G73A it was 0.493.
Take U37C G73C: the self-cleavage turned out to be 0.356.
For the variant U37G C75G, the self-cleavage came to 0.
In the case of U37G C44G, the self-cleavage was found to be 0.0692.
In the case of U37G C44A, the self-cleavage was 0.0791.
In the case of U37A A56G it was 0.107; in that of U37A A56C, 0.229; in that of U37A A56U, 0.332.
In the case of G38A A51U it was 0.268; in that of G38A A51C, 0.212.
Consider G38A A77C, for which the self-cleavage was found to be 0.0354.
In the case of U37A C66G it was 0.158; in that of U37C C58A, 1.22; in that of U37C C58G, 0.872.
U37C C58U: the self-cleavage was 0.997.
Turning to U37A G55C, the self-cleavage was determined as 0.299.
In the case of G38A C41A it was 0.185.
In the case of G38A C41U it was 0.354; in that of U37A U47A, 0.201; in that of U37C A77G, 1.03.
With U37C A77U, the self-cleavage turned out to be 0.388.
As to U37C A77C, the self-cleavage worked out at 0.415.
In the case of G38A G39C it was 0.0923; in that of G38A G39A, 0.0963.
